Source: publication PMC10153361, “Mechanism of imidazole inhibition of a GH1 β‐glucosidase” (FEBS Open Bio, 2023)

Substrate: O=[N+]([O-])c1ccc(O[C@@H]2O[C@H](CO)[C@@H](O)[C@H](O)[C@H]2O)cc1
Assay: purified protein
Format: biochemical, Spodoptera frugiperda
Conditions: 100 mM phosphate pH 6.0, 30 °C

B1: Sfβgly (GH1 β-glucosidase from Spodoptera frugiperda) (Spodoptera frugiperda) (protein)
chain: QQRRFPDDFLFGTATASYQIEGAWDEDGKGENIWDYMVHNTPEVIRDLSNGDIAADSYHNYKRDVEMMRELGLDAYRFSLSWARILPTGMANEVNPAGIAFYNNYIDEMLKYNITPLITLYHWDLPQKLQELGGFANPLISDWFEDYARVVFENFGDRVKMFITFNEPREICFEGYGSATKAPILNATAMGAYLCAKNLVTAHAKAYYLYDREFRPVQGGQCGITISVNWFGPATPTPEDEMAAELRRQGEWGIYAHPIFSAEGGFPKELSDKIAEKSAQQGYPWSRLPEFTEEEKAFVRGTSDLIGVNHYTAFLVSATERKGPYPVPSLLDDVDTGSWADDSWLKSASAWLTLAPNSIHTALTHLNNLYNKPVFYITENGWSTDESRENSLIDDDRIQYYRASMESLLNCLDDGINLKGYMAWSLMDNFEWMEGYIERFGLYEVDFSDPARTRTPRKAAFVYKHIIKHRVVDYEYEPETMVMTIDEGH
notes: recombinant, E. coli BL21(DE3), vector pET46, Ni-NTA purified; secreted digestive midgut enzyme; catalytic residues E187 and E399
- Km: 1730 ± 40 µM
- kcat: 1.33 ± 0.333 s⁻¹
